Source: paper PMC8065039

Key:
FcγRIIB/C (human) = FcγRIIB/C (human) (UniProt P31994); assay: SPR
[1] = target: Gama Fc Receptor 1 (CD64) (human) (UniProt P12314); assay: SPR
FcγRIIA R167 (human) = FcγRIIA R167 (human) (UniProt P12318); assay: SPR
C1q (human) = C1q (human) (UniProt P02745); assay: ELISA; C1q binding ELISA: plates coated with 5 ug/mL CA521 subtypes or OPDIVO (IgG4), fourfold serial dilutions starting at 40 ug/mL, 2 h at 37 C, C1q detected by HRP anti-human C1q; x axis of the figure: antibody concentration (nM); duplicate
C1q (human), sequence (P02745 23-245, chain 1 of 3): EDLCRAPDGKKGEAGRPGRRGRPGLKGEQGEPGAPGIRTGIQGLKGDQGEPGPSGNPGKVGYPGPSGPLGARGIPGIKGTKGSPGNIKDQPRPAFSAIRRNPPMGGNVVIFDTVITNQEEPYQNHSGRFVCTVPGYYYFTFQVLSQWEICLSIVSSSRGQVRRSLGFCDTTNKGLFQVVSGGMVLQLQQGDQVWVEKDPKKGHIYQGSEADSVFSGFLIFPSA
C1q (human), sequence (P02746 28-253, chain 2 of 3, further chain): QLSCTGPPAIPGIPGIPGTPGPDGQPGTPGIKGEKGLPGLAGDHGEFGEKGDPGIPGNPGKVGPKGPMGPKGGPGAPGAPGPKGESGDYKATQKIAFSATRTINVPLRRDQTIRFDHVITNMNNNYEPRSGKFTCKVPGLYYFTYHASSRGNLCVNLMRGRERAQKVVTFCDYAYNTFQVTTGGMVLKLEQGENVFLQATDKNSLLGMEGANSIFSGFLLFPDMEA
C1q (human), sequence (P02747 29-245, chain 3 of 3, further chain): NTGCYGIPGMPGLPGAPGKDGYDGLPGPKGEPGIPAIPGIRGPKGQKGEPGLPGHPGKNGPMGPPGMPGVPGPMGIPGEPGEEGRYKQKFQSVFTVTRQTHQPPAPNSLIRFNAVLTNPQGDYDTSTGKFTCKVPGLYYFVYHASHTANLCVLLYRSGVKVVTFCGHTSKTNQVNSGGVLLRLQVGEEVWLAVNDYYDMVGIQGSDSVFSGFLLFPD

FcγRIIB/C (human), sequence (P31994 43-217): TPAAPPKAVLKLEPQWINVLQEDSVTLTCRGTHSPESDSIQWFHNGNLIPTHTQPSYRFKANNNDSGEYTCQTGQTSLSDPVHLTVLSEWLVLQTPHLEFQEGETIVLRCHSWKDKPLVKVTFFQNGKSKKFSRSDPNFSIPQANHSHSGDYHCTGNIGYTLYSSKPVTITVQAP
FcγRIIA R167 (human), sequence (P12318 34-217 H167R): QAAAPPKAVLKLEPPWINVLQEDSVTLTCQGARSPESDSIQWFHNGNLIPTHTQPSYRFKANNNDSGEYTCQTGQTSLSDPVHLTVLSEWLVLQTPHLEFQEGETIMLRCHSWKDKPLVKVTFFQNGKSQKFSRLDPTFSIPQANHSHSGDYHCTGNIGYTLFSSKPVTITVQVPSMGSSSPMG
Gama Fc Receptor 1 (CD64) (human), sequence (P12314 16-374): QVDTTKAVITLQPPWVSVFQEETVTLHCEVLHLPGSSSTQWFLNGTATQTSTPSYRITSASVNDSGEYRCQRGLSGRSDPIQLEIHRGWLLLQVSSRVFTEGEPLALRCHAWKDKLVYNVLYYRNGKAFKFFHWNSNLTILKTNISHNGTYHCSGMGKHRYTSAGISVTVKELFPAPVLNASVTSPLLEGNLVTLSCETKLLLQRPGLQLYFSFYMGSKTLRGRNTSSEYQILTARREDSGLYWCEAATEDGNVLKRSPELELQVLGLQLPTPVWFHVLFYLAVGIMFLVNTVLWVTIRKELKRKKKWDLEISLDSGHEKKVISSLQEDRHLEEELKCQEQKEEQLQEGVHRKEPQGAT

## CA521(IgG1) (from UniProt P01857)
FcγRIIB/C (human)
  Kd: 20400 nM
[1]
  Kd: 3.12 nM
FcγRIIA R167 (human)
  Kd: 5110 nM

## Opdivo (IgG4) (antibody)
C1q (human)
  IC50: 35.9 nM
